maleimide monolayer = not defined here
B1: Ac-GAGDSC (SEQ ID NO: 30), immobilized on a monolayer array (peptide)
peptide: Ac-GAGDSC(maleimide monolayer)-NH2
modifications: not fully specified; printed as Ac-GAGDSC; reading uncertain
notes: also called 0.5% Ac-GAGDSC; Ac-GXGDSC with X = Ala
B2: Ac-GLGDSC (SEQ ID NO: 34), immobilized on a monolayer array (peptide)
peptide: Ac-GLGDSC(maleimide monolayer)-NH2
modifications: not fully specified; printed as Ac-GLGDSC; reading uncertain
notes: also called 0.5% Ac-GLGDSC; Ac-GXGDSC with X = Leu
B3: Ac-GGGDSC (SEQ ID NO: 29), immobilized on a monolayer array (peptide)
peptide: Ac-GGGDSC(maleimide monolayer)-NH2
modifications: not fully specified; printed as Ac-GGGDSC; reading uncertain
notes: also called 0.5% Ac-GGGDSC; Ac-GXGDSC with X = Gly
B4: Ac-GVGDSC (SEQ ID NO: 32), immobilized on a monolayer array (peptide)
peptide: Ac-GVGDSC(maleimide monolayer)-NH2
modifications: not fully specified; printed as Ac-GVGDSC; reading uncertain
notes: also called 0.5% Ac-GVGDSC; Ac-GXGDSC with X = Val
B5: Ac-GKGDSC (SEQ ID NO: 31), immobilized on a monolayer array (peptide)
peptide: Ac-GKGDSC(maleimide monolayer)-NH2
modifications: not fully specified; printed as Ac-GKGDSC; reading uncertain
notes: also called 0.5% Ac-GKGDSC; Ac-GXGDSC with X = Lys
B6: Ac-GIGDSC (SEQ ID NO: 33), immobilized on a monolayer array (peptide)
peptide: Ac-GIGDSC(maleimide monolayer)-NH2
modifications: not fully specified; printed as Ac-GIGDSC; reading uncertain
notes: also called 0.5% Ac-GIGDSC; Ac-GXGDSC with X = Ile

Biological target: T1, human αIIbβ3 integrin on transfected CHO K1 cells (human, UniProt P08514 32-1039; P05106 27-788)
T1 construct: whole, on cells; CHO K1 cells transfected with human αIIb and β3 cDNA; about 30% of the cells expressed the receptor; also called platelet receptor; platelet integrin
Assay: Ac-GXGDSC peptide array, adhesion of αIIbβ3 CHO K1 cells
Conditions: not given
Experimental: (§1) After 15-minute of incubation, cells (200,000/mL) were added to substrates in 24-well culture plates. After 2 hour incubation at 37° C. and 5% CO₂, media was exchanged for F-12K medium supplemented with 10% FBS, 1× penicillin/streptomycin and cRGDFG (SEQ ID NO: 12) (300 μM). After 2 hours, the substrates were washed gently with warm PBS, and adherent cells were immediately fixed with 4% formaldehyde for 30 minutes, visualized with a 20× objective of a Zeiss Axiovert 200 inverted microscope, and photographed. For cell adhesion assays mediated by Ac-GXGDSC (SEQ ID NO: 26), αIIbβ3 CHO K1 cells were incubated on a 5×4 circle (1 mm diameter) array for 1 hour with serum-free F-12K medium supplemented with cRGDFG (SEQ ID NO: 12) (300 μM) and 1× penicillin/streptomycin, followed by media exchange to F-12K medium supplemented with 10% FBS, 1× penicillin/streptomycin and cRGDFG (SEQ ID NO: 12) (300 μM. The substrates were washed with warm PBS, and adherent cells were immediately fixed and permeabilized with 4% formaldehyde and 0.5% Triton-X for 30 minutes. Fixed cells were stained with DAPI, visualized and photographed with a 20× objective as described. The number of adherent cells per field of view was counted using Image J software. Cells were counted in at least three fields for each circle, and each experiment was repeated 3 times. The degree of adhesion is reported as a percentage of cells that adhere relative to control experiments with the peptide Ac-GRGDSC (SEQ ID NO: 28).
To further assay the binding of peptide ligands to the […] integrin for XGD peptide ligands, an array was used to assess the adhesion of cells to peptides having the arginine residue substituted with each amino acid other than cysteine (e.g., A, D, E, F, G, H, I, K, L, M, N, P, Q, R, S, T, V, W, and Y). The library of Ac-GXGDSC (SEQ ID NO: 26) peptides was synthesized and immobilized in an array with each peptide occupying a 1 mm diameter region of the monolayer (FIG. 61). A suspension of αIIbβ3 CHO K1 cells was applied to the entire array and cells were allowed to attach to regions presenting the various peptides. The substrates were then rinsed and stained with DAPI, and the cells were counted to determine the relative efficiency of cell attachment to peptides in the library.

| binding result | Molecule |
| --- | --- |
| binds | Ac-GRGDSC(maleimide monolayer)-NH2 (not fully specified; printed as Ac-GRGDSC; reading uncertain, also called 0.5% Ac-GRGDSC) [Ac-GRGDSC (SEQ ID NO: 28), immobilized on a monolayer array] |
| binds | B1 |
| no binding | Ac-GYGDSC(maleimide monolayer)-NH2 (reading uncertain; also: printed as Ac-GXGDSC, Member of the Ac-GXGDSC library) [Ac-GXGDSC (SEQ ID NO: 26) with X = Y, immobilized on a monolayer array] |
| binds | B2 |
| binds | B3 |
| no binding | Ac-GPGDSC(maleimide monolayer)-NH2 (not fully specified; printed as Ac-GXGDSC; reading uncertain, Member of the Ac-GXGDSC library) [Ac-GXGDSC (SEQ ID NO: 26) with X = P, immobilized on a monolayer array] |
| no binding | Ac-GDGDSC(maleimide monolayer)-NH2 (not fully specified; printed as Ac-GXGDSC; reading uncertain, Member of the Ac-GXGDSC library) [Ac-GXGDSC (SEQ ID NO: 26) with X = D, immobilized on a monolayer array] |
| no binding | Ac-GTGDSC(maleimide monolayer)-NH2 (not fully specified; printed as Ac-GXGDSC; reading uncertain, Member of the Ac-GXGDSC library) [Ac-GXGDSC (SEQ ID NO: 26) with X = T, immobilized on a monolayer array] |
| no binding | Ac-GHGDSC(maleimide monolayer)-NH2 (not fully specified; printed as Ac-GXGDSC; reading uncertain, Member of the Ac-GXGDSC library) [Ac-GXGDSC (SEQ ID NO: 26) with X = H, immobilized on a monolayer array] |
| no binding | Ac-GSGDSC(maleimide monolayer)-NH2 (not fully specified; printed as Ac-GXGDSC; reading uncertain, Member of the Ac-GXGDSC library) [Ac-GXGDSC (SEQ ID NO: 26) with X = S, immobilized on a monolayer array] |
| no binding | Ac-GQGDSC(maleimide monolayer)-NH2 (not fully specified; printed as Ac-GXGDSC; reading uncertain, Member of the Ac-GXGDSC library) [Ac-GXGDSC (SEQ ID NO: 26) with X = Q, immobilized on a monolayer array] |
| binds | B4 |
| no binding | Ac-GMGDSC(maleimide monolayer)-NH2 (not fully specified; printed as Ac-GXGDSC; reading uncertain, Member of the Ac-GXGDSC library) [Ac-GXGDSC (SEQ ID NO: 26) with X = M, immobilized on a monolayer array] |
| no binding | Ac-GFGDSC(maleimide monolayer)-NH2 (not fully specified; printed as Ac-GXGDSC; reading uncertain, Member of the Ac-GXGDSC library) [Ac-GXGDSC (SEQ ID NO: 26) with X = F, immobilized on a monolayer array] |
| binds | B5 |
| no binding | Ac-GWGDSC(maleimide monolayer)-NH2 (reading uncertain; also: printed as Ac-GXGDSC, Member of the Ac-GXGDSC library) [Ac-GXGDSC (SEQ ID NO: 26) with X = W, immobilized on a monolayer array] |
| binds | B6 |

Tested on: αIIbβ3 CHO K1 cells
Assay: Cell adhesion assay: αIIbβ3 CHO K1 cells on SAMs presenting immobilized peptides
Format: cell-based, human
Conditions: 0.5% peptide SAM; in presence of 300 μM cRGDFG
Experimental: Monolayers were prepared as described (Houseman, et al., 2003). Glass coverslips were sonicated for 30 minutes in deionized ultrafiltered (DIUF) water and then 30 minutes in ethanol and then dried under a stream of nitrogen. Titanium (4 nm) and then gold (29 nm) were evaporated onto the coverslips using an electron beam evaporator (Boc Edwards) at a rate of 0.05-0.10 nm/s and at a pressure of 1 μTorr. The gold-coated coverslips were immersed in an ethanolic solution of maleimide-terminated disulfide (1%) and tri(ethylene glycol)-terminated disulfide (99%) overnight at room temperature. The total disulfide concentration was 1 mM. The substrates were washed with DIUF water, ethanol and then dried under a stream of nitrogen.
The pcDNA3.1 vectors that express human αIIb or β3, respectively, have been described previously (see e.g., Litvinov et al. (2006) Biochemistry, 45: 4957-4964). CHO K1, BHK 21 and HT1080 cells were purchased from ATCC. All CHO cells were cultured at 37° C. and 5% CO2 using F12K medium supplemented with 10% FBS and pen/strep. […] CHO K1 cells were transfected with αIIb and β3 cDNA with FuGENE following the supplier's protocol. Transfected cells were selected with 1 mg/mL zeocin and 1 mg/mL geneticin.
as §1, with “Cysteine-terminated peptides were immobilized onto maleimide-presenting SAMs by adding 40 μL of 1 mM peptide solution to the biochip and incubating at 37° C. for 1 hour. Substrates were rinsed with DIUF water and ethanol and dried under a stream of nitrogen. αIIbβ3 CHO K1 cells were detached from culture plates with 1 mM EGTA/2 mM EDTA in PBS (phosphate-buffered saline), rinsed with serum-free F-12K medium, centrifuged and resuspended in serum-free F-12K medium supplemented with cRGDFG (SEQ ID NO: 12) (300 μM) and 1× penicillin/streptomycin. After 15-minute” for “After 15-minute”, “and 5% CO2, media was” for “and 5% CO₂, media was”
Monolayers were prepared that presented a mixture of maleimide groups and tri(ethylene glycol) groups with the former present at a density of 0.5% (relative to total alkanethiolate). The monolayers were treated with cysteine-terminated peptides to immobilize the ligands (FIG. 1A). In each case mass spectrometry was used to verify immobilization of the peptides in high yield (Su et al., 2002).
The adhesion and spreading of αIIbβ3 CHO K1 cells to monolayers presenting GRGDSC (SEQ ID NO: 11), HHLGGAKQAGDVC (SEQ ID NO: 21) and a mixture of both peptides was compared. […]

| Molecule | adhesion of αIIbβ3 CHO K1 cells to monolayer presenting the peptide |
| --- | --- |
| AGDVC (completely synthesized peptide) | adhered |
| GDVC (completely synthesized peptide) | failed to adhere |
| GGAKQAC (completely synthesized peptide) | failed to adhere |
| GHHLGGADQAGKVC (scrambled peptide) | lack of cell attachment |
| HHLGGAC (completely synthesized peptide) | failed to adhere |
| KQAGC (completely synthesized peptide) | failed to adhere |
| KQAGDC (completely synthesized peptide) | adhered |
| KQAGDVC (completely synthesized peptide) | adhered and spread |
| QAGDVC (completely synthesized peptide) | adhered |

Source: US20120252730A1, “PLATELET AGGREGATION INHIBITORS” (UNIVERSITY OF CHICAGO, priority 2009, published 2012)
